± gives the standard deviation of the averaged measurements.
How the values were obtained:
[1] = system: MCF7; assay: percentage of EdU-negative (G0-arrested) nuclei per well, 72 h; higher = more G0 arrest; details: reference: sequence is the full UniProt precursor, the tested protein was the secreted form or ectodomain
[2] = system: hTERT-HMEC; assay: as above; details: reference: sequence is the full UniProt precursor, the tested protein was the secreted form or ectodomain
[3] = protein concentration 0.03125 µM
[4] = protein concentration 0.3125 µM
[5] = protein concentration 0.00714286 µM
[6] = protein concentration 0.0714286 µM
[7] = protein concentration 0.0225 µM
[8] = protein concentration 0.0075 µM
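Further: secreted proteins added to cultured cells, EdU pulse at the end, nuclei found by Hoechst imaging, EdU status from nuclear versus surrounding ring intensity ratio, PBS as neutral control.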

Substance | percentage of EdU-negative [1, 7] [%] | percentage of EdU-negative ([1]; protein concentration 0.225 µM) [%] | percentage of EdU-negative [2, 7] [%] | percentage of EdU-negative ([2]; protein concentration 0.225 µM) [%] | other results
MSERKEGRGKGKGKKKERGSGKKPESAAGSQSPALPPRLKEMKSQESAAGSKLVLRCETSSEYSSLRFKWFKNGNELNRKNKPQNIKIQKKPGKSELRINKASLADSGEYMCKVISKLGNDSASANITIVESNEIITGMPASTEGAYVSSESPIRISVSTEGANTSSSTSTSTTGTSHLVKCAEKEKTFCVNGGECFMVKDLSNPSRYLCKCQPGFTGARCTENVPMKVQNQEKAEELYQKRVLTITGICIALLVVGIMCVVAYCKTKKQRKKLHDRLRQSLRSERNNMMNIANGPHHPNPPPENVQLVNQYVSKNVISSEHIVEREAETSFSTSHYTSTAHHSTTVTQTPSHSWSNGHTESILSESHSVIVMSSVENSRHSSPTGGPRGRLNGTGGPRECNSFLRHARETPDSYRDSPHSERYVSAMTTPARMSPVDFHTPSSPKSPPSEMSPPVSSMTVSMPSMAVSPFMEEERPLLLVTPPRLREKKFDHHPQQFSSFHHNPAHDSNSLPASPLRIVEDEEYETTQEYEPAQEPVKKLANSRRAKRTKPNGHIANRLEVDSNTSSQSSNSESETEDERVGEDTPFLGIQNPLAASLEATPAFRLADSRTNPAGRFSTQEEIQARLSSVIANQDPIAV |  |  |  |  | percentage of EdU-negative [1, 3]: 23.8 ± 3.8%; percentage of EdU-negative [1, 4]: 24.8 ± 0.83%; percentage of EdU-negative [2, 3]: 4.23 ± 0.16%; percentage of EdU-negative [2, 4]: 4.694 ± 0.041%
MGSGAGELGRAERLPVLFLFLLSLFCPALCEQIRYRIPEEMPKGSVVGNLATDLGFSVQELPTRKLRVSSEKPYFTVSAESGELLVSSRLDREEICGKKPACALEFEAVAENPLNFYHVNVEIEDINDHTPKFTQNSFELQISESAQPGTRFILEVAEDADIGLNSLQKYKLSLNPSFSLIIKEKQDGSKYPELALEKTLDREQQSYHRLVLTALDGGHPPLSGTTELRIQVTDANDNPPVFNRDVYRVSLRENVPPGTTVLQVSATDQDEGINSEITYSFYRTGQIFSLNSKSGEITTQKKLDFEETKEYSMVVEGRDGGGLVAQCTVEINIQDENDNSPEVTFHSLLEMILENAVPGTLIALIKIHDQDSGENGEVNCQLQGEVPFKIISSSKNSYKLVTDGTLDREQTPEYNVTITATDRGKPPLSSSISVILHIRDVNDNAPVFHQASYLVSVPENNPPGASIAQVCASDLDLGLNGQVSYSIMASDLEPLALASYVSMSAQSGVVFAQRAFDYEQLRTFELTLQARDQGSPALSANVSLRVLVGDRNDNAPRVLYPALGPDGSALFDMVPRAAEPGYLVTKVVAVDADSGHNAWLSYHVLQASEPGLFSLGLRTGEVRTARALGDRDAARQRLLVAVRDGGQPPLSATATLHLVFADSLQEVLPDITDRPVPSDPQAELQFYLVVALALISVLFLLAVILAVALRLRRSSSPAAWSCFQPGLCVKSGPVVPPNYSQGTLPYSYNLCVAHTGKTEFNFLKCSEQLSSGQDILCGDSSGALFPLCNSSESTSHPELQAPPNTDWRFSQAQRPGTSGSQNGDDTGTWPNNQFDTEMLQAMILASASEAADGSSTLGGGAGTMGLSARYGPQFTLQHVPDYRQNVYIPGSNATLTNAAGKRDGKAPAGGNGNKKKSGKKEKK [Q9Y5G0] |  |  |  |  | percentage of EdU-negative [1, 5]: 26.7 ± 4%; percentage of EdU-negative [1, 6]: 34.45 ± 0.24%; percentage of EdU-negative [2, 5]: 5.16 ± 0.12%; percentage of EdU-negative [2, 6]: 11.4 ± 4.3%
MRTIAILAAILLVALQAQAESLQERADEATTQKQSGEDNQDLAISFAGNGLSALRTSGSQARATCYCRTGRCATRESLSGVCEISGRLYRLCCR | 27.1 ± 0.85 | 25.5 ± 1.3 | 4.85 ± 0.56 | 5.716 ± 0.019 | 
MCGSALAFFTAAFVCLQNDRRGPASFLWAAWVFSLVLGLGQGEDNRCASSNAASCARCLALGPECGWCVQEDFISGGSRSERCDIVSNLISKGCSVDSIEYPSVHVIIPTENEINTQVTPGEVSIQLRPGAEANFMLKVHPLKKYPVDLYYLVDVSASMHNNIEKLNSVGNDLSRKMAFFSRDFRLGFGSYVDKTVSPYISIHPERIHNQCSDYNLDCMPPHGYIHVLSLTENITEFEKAVHRQKISGNIDTPEGGFDAMLQAAVCESHIGWRKEAKRLLLVMTDQTSHLALDSKLAGIVVPNDGNCHLKNNVYVKSTTMEHPSLGQLSEKLIDNNINVIFAVQGKQFHWYKDLLPLLPGTIAGEIESKAANLNNLVVEAYQKLISEVKVQVENQVQGIYFNITAICPDGSRKPGMEGCRNVTSNDEVLFNVTVTMKKCDVTGGKNYAIIKPIGFNETAKIHIHRNCSCQCEDNRGPKGKCVDETFLDSKCFQCDENKCHFDEDQFSSESCKSHKDQPVCSGRGVCVCGKCSCHKIKLGKVYGKYCEKDDFSCPYHHGNLCAGHGECEAGRCQCFSGWEGDRCQCPSAAAQHCVNSKGQVCSGRGTCVCGRCECTDPRSIGRFCEHCPTCYTACKENWNCMQCLHPHNLSQAILDQCKTSCALMEQQHYVDQTSECFSSPSYLRIFFIIFIVTFLIGLLKVLIIRQVILQWNSNKIKSSSDYRVSASKKDKLILQSVCTRAVTYRREKPEEIKMDISKLNAHETFRCNF |  |  |  |  | percentage of EdU-negative [1, 8]: 28.2 ± 3%; percentage of EdU-negative ([1]; protein concentration 0.075 µM): 28.3 ± 2.1%; percentage of EdU-negative [2, 8]: 4.94 ± 0.66%; percentage of EdU-negative ([2]; protein concentration 0.075 µM): 6.65 ± 1.7%
Q9NP99 | 25.2 ± 3.3 | 25.7 ± 1.1 | 4.69 ± 0.52 | 5.446 ± 0.054 | 
MSCPVPACCALLLVLGLCRARPRNALLLLADDGGFESGAYNNSAIATPHLDALARRSLLFRNAFTSVSSCSPSRASLLTGLPQHQNGMYGLHQDVHHFNSFDKVRSLPLLLSQAGVRTGIIGKKHVGPETVYPFDFAYTEENGSVLQVGRNITRIKLLVRKFLQTQDDRPFFLYVAFHDPHRCGHSQPQYGTFCEKFGNGESGMGRIPDWTPQAYDPLDVLVPYFVPNTPAARADLAAQYTTVGRMDQGVGLVLQELRDAGVLNDTLVIFTSDNGIPFPSGRTNLYWPGTAEPLLVSSPEHPKRWGQVSEAYVSLLDLTPTILDWFSIPYPSYAIFGSKTIHLTGRSLLPALEAEPLWATVFGSQSHHEVTMSYPMRSVQHRHFRLVHNLNFKMPFPIDQDFYVSPTFQDLLNRTTAGQPTGWYKDLRHYYYRARWELYDRSRDPHETQNLATDPRFAQLLEMLRDQLAKWQWETHDPWVCAPDGVLEEKLSPQCQPLHNEL | 28.4 ± 3.8 | 26.4 ± 0.34 | 5.35 ± 1.4 | 7.84 ± 0.29 | 
MVTLRKRTLKVLTFLVLFIFLTSFFLNYSHTMVATTWFPKQMVLELSENLKRLIKHRPCTCTHCIGQRKLSAWFDERFNQTMQPLLTAQNALLEDDTYRWWLRLQREKKPNNLNDTIKELFRVVPGNVDPMLEKRSVGCRRCAVVGNSGNLRESSYGPEIDSHDFVLRMNKAPTAGFEADVGTKTTHHLVYPESFRELGDNVSMILVPFKTIDLEWVVSAITTGTISHTYIPVPAKIRVKQDKILIYHPAFIKYVFDNWLQGHGRYPSTGILSVIFSMHVCDEVDLYGFGADSKGNWHHYWENNPSAGAFRKTGVHDADFESNVTATLASINKIRIFKGR | 24.2 ± 3.6 | 28.079 ± 0.0073 | 5.6 ± 0.99 | 6.41 ± 0.73 | 

— the supplement of paper PMC11316812
